How the values were obtained:
Test in all cases: pull-down SILAC MS
[1] = test system: MBD2 (U937 nuclear extract) (Homo sapiens); conditions: 5-methylcytosine at CpG (M.SssI); EMSA: 20 mM HEPES pH 7.9, 1 mM EDTA, 3 mM MgCl2, 10 mM beta-mercaptoethanol, 10% glycerol, 0.1% Triton X-100, 2 ug BSA, 10 ng poly(dI-dC), 30 min on ice …; scale: H/L ratio methylated/unmethylated
[2] = test system: MeCP2 (U937 nuclear extract) (Homo sapiens); conditions: reverse ratio 0.18572; 5-methylcytosine at CpG (M.SssI); EMSA: 20 mM HEPES pH 7.9, 1 mM EDTA, 3 mM MgCl2, 10 mM beta-mercaptoethanol, 10% glycerol, 0.1% Triton X-100, 2 ug BSA, 10 ng poly(dI-dC), 30 min on ice …; scale: H/L ratio methylated/unmethylated
[3] = test system: RBP-J (U937 nuclear extract) (Homo sapiens); conditions: reverse ratio 0.11974; 5-methylcytosine at CpG (M.SssI); EMSA: 20 mM HEPES pH 7.9, 1 mM EDTA, 3 mM MgCl2, 10 mM beta-mercaptoethanol, 10% glycerol, 0.1% Triton X-100, 2 ug BSA, 10 ng poly(dI-dC), 30 min on ice …; scale: H/L ratio methylated/unmethylated

Substance: GSTP1 CpG-island multimer, methylated (pull-down)
- binding signal [1]: 12.9
- binding signal [2]: 4.54
- binding signal [3]: 6.21

Source: PMC3185043
